Assay: soluble on expression in E. coli; label from the status in PepcDB or PDB records

| Sequence | soluble on expression in E. coli |
| --- | --- |
| MGSDKIHHHHHHMTWDQSPLRGGEPIVSVQSPFEAIERGPKMEMRDIDFLIIGATKSATTWLQQSLQQDPGIFMPDPELHYFSRYYERGDEWYLEHFAGQEHRRLRGEKSNSYMDVPEAAERIKEKLPEARLIAHVRNPVDRAYSDYCMLYRRAEVGRDIAQYLDPRQGAGGRFLNGGLYYQQLQGYLDRFPAEQILVLLYEDLKIDARAQLARVRGFLGLEADVPLKPLAKKVKDKSEPVVNPTLRRLLRPLKPVAAPFRQNTGFKKLRSLIAGELQYAPLSHDLRARMTDYFAPETEKLGALVGRDLTDWLRNRSPEK | not soluble |
| MAHHHHHHMEEQVDLEKALAVAIKAAQSAGNIMLEFYQLRREDTAAKMMRLLKEGGSHTTGELAASPKPTPVDLLDIKTKSSSTDLVTHYDKLCDETIMKILQRFNAKVEDEKRNEPSEAFSFQFITEELTPDTPLTDEPTWIVDPIDGTMSFVHGGCDCCISIGLAIKKQTVLAVVYCPFLSIVQHSVEDLRSTSAVAGELYTAIRGKGTFLNGQPIRVSADALPNTALVAFNYPMGARLSAAEIPSDSAQVGVLKRQKHRKVVEAAGHIREQLAMHPVQGIRSYGSCALILAQVAAGRIDLYMEPAGMVWDVCAGSLLITEAGGVVKNMWGGDFGLEGTTTIIAAANETLADYGIQLCTQVNYGDYWKK | soluble |
| MAAIAFIGLGQMGSPMASNLLQQGHQLRVFDVNAEAVRHLVDKGATPAANPAQAAKDAEFIITMLPNGDLVRNVLFGENGVCEGLSTDALVIDMSTIHPLQTDKLIADMQAKGFSMMDVPVGRTSANAITGTLLLLAGGTAEQVERATPILMAMGSELINAGGPGMGIRVKLINNYMSIALNALSAEAAVLCEALNLPFDVAVKVMSGTAAGKGHFTTSWPNKVLSGDLSPAFMIDLAHKDLGIALDVANQLHVPMPLGAASREVYSQARAAGRGRQDWSAILEQVRVSAGMTAKVKM | soluble |
| MGSDKIHHHHHHMTLGTKLSVDQEYLKSFSEKHQEPAWLKNLRLQALEQAEDLPMPKPDKTKITNWNFTNFAKHTVDNEPLSSLEDLTDEVKALIDIENEDKTLYVQRDQTPAHLSLSQELKDKGVIFTDILTAAREHSDLVEKYFMKDGVKVDEHKLTALHAALVNGGAFLYVPKNVQVETPVQAVYVHESNDTALFNHVLIVAEDHSSVTYVENYISTVNPKDAVFNIISEVITGDNASVTYGAVDNLSSGVTTYVNRRGAARGRDSKIEWALGLMNDGDTISENTTNLYGDGTYGDTKTVVVGRGEQTENFTTQIIHFGKASEGYILKHGVMKDSASSIFNGIGKIEHGASKANAEQESRVLMLSEKARGDANPILLIDEDDVTAGHAASVGRVDPIQLYYLMSRGIPKEEAERLVIYGFLAPVVNELPIEGVKKQLVSVIERKVK | not soluble |
| MSSPKKNFKKPQPKTENQKQALNEERIAELKKSRILGKNRPFKKMIYVDTKAQRKQKHENVAFLKTLQENKESDVPKKRRGRKPKHAPLKEKNNLKLFDILEGSLKSHTENDDTNKVISLLVEVWEKKNKKKDNNSLSNKDIVNVLSKFELPDDEIIFVLDELR | soluble |
| MPAGHEDIGLPQDDEAFMRYRERRIQELCGKVEEVVSEKELIEKTKSLRMIVHFYKPEFKRCKTMDKGLEEVKDCFPGIRFYRVNAEICPVVARKLEIRVLPFLGFFKDGYFVDQVVGFEKLGGDSVEPEVLKKRILDSNIFKPISSI | not soluble |
| MGSDKIHHHHHHMYVNRIGTFRDHPDLYGVSVYFQGCDAKPKCYMCHNPETWHLSEEYKRPSEVVTKIIDEKLSSLLRYFPKAALVFLGGEPLAPYNREEMLSLSKMFKEKYGERLTVVLFTWRLPKDIVKENLLKYVQYVDEFVMGRYLHTYRRDGFPASKNQIHIDRRTFERMIEAVLRRGHYEGSVFVRKRI | not soluble |
| VSLEDYNLSEDLKVRLDSAEGIFVSGAPGSGKSTFVSALAERYKNMDKIVKTMESPRDLQVDEEITQYAPLEGSMEKTCDILLLVRPDYTIYDEVRKTKDFEIFADMRMAGVGMVGVVHASKAIDSIQRLIGRVELGIIPQIVDTVVFIENGKIGKVYEVEFNVKVPH | not soluble |
| MRNNPLIPKSKLPNLGTTIFTQMSALAQKHQAINLSQGFPDFDGPRYLHERLAYHVAQGANQYAPMTGAQALREAIADKTAEIYGYRPDDVSDITVTAGATEALYAAITALVRAGDEVICFDPSYDSYAPAVALSGGVLKRIALTPPHFRVDWQAFSALLSERTRLVILNTPHNPTATVWRQADIEALWQAIGEREIYVLSDEVYEHICFAAEGHASVLAHPQLRERAVAVSSFGKTFHMTGWKIGYCVAPAAISAEIRKVHQYLTFCVNTPAQLALADMLRAAPEHYRALPDFYRKKRDVLVNALAQSRLKVLPCEGTYFLLIDYSAVSTLNDVEFCQWLTEEVGVAAIPLSVFCAAPFPHQLIRLCFAKQESTLLAAAERLCKL | not soluble |
| METQKQTRRRGEKLENTILTAAWDQLNKVGYKDLTITEIASLAGTNKTTIYRRWPNKSLLVVSAFSKFVPRPKMHIPNSGNLRDDLVKLFEQLVNQLEFLTSGKFEGLLLDRLRDTSIDKVFGRVDENNALQKFIVIILQRAEKRGELKINQLSQRVLELPFLLLLNEVISTRGIVPKESLTEIVDKILLPVFLRSN | not soluble |
| MGHHHHHHSHMANSAGSMANSAGSMKEGKHFVLVHGACHGGWSWYKLKPLLEAAGHKVTALDLAASGTDLRKIEELRTLYDYTLPLMELMESLSADEKVILVGHSLGGMNLGLAMEKYPQKIYAAVFLAAFMPDSVHNSSFVLEQYNERTPAENWLDTQFLPYGSPEEPLTSMFFGPKFLAHKLYQLCSPEDLALASSLVRPSSLFMEDLSKAKYFTDERFGSVKRVYIVCTEDKGIPEEFQRWQIDNIGVTEAIEIKGADHMAMLCEPQKLCASLLEIAHKYN | soluble |
| MGSDKIHHHHHHMEERVVVEGLTGGYRPNKPVLHDLHLKIRANELVGLIGLNGAGKSTTIKHILGLMEPHKGSVMINGNTITTDRETYRRSLAYIPETPILYEELTLWEHMELTALAYGIERKAFEERSKLLLDEFRMTKMKHWYPSHFSKGMRQKVMIICAFLIDPPVYIVDEPIVGLDPIGIQSFLQLLATKKKNGAAVLMSTHILATAERYCDRFIILNRGRIVLEGTLESMRAELNMPDATLDDIYIEMTKEESQ | not soluble |
| MACERLGGQSGAADVDAAAPAMAAVNLTLGFAGKTVLDQVSMGFPARAVTSLMGPTGSGKTTFLRTLNRMNDKVSGYRYSGDVLLGGRSIFNYRDVLEFRRRVGMLFQRPNPFPMSIMDNVLAGVRAHKLVPRKEFRGVAQARLTEVGLWDAVKDRLSDSPFRLSGGQQQLLCLARTLAVNPEVLLLDEPTSALDPTTTEKIEEFIRSLADRLTVIIVTHNLAQAARISDRAALFFDGRLVEEGPTEQLFSSPKHAETARYVAGLSGDVKDAKRGN | not soluble |
| MGSDKIHHHHHHMEKLRVIEMIKNNPNIIATIDNPTDEMKLLAIKENGLVLEYINNPTREMQELAIDNNIRAIKFIDNPTEDMMIKAVNEGWSILDYIKNPTDKVIEMAINQAGWAIKYAKNPSEELQLLAVRKNYDSIKFIKQPYESVQEEAVRISYDALRYIDSPSYNAELVAIKNNEAAISFITDLDKNKMLEFLKVNILVIKYILKKVSKDELESVLKEVLSKEDVEEKYIRDFLNCSVIDRNSESIPIDKIMFIYKYGSKTAKKIAVDEKLKIM | not soluble |
| MSLSSKLRLQLDAHASIHENVRRLLQFTTSIMEANEEGIRKDIDSEFLHDFRVAIRRSRSILRLLNGVFDPEKTAWMLAGLRELGKRTNDLRDSDVYLLRREEYTSLLPPSLRPALDPFFSDLEADKRLHHRQFCRYLTGREYSGFMTSLKEFIAEGELPDPETAPLAAEPTGDVAAKTIRKALKKVLVHGRRTGSETSDAELHELRIDCKKLRYLLEFFASLFPPKATAQVLRQMKTLQDNLGTFVDLTVQMEFLQSRLETIPADRGGISEAAAIGGLLTTLYRKREKVREHFHEIFSGFDSNETGELFDELLTGLAEGHHHHHH | soluble |
| MGSDKIHHHHHHMDAAAAPERIDLAGLVADLNALLRLKTTVIGMKLFRTVAEMEAVPKIRRPNAIHTTDQIVSMASRLGWTVGITAADLVGEQCRAVIGLAPQDAAWLAGRSYVGVWHATPEDASARQQALDVVPFGHHQAMAVSPLASGRLDPPDICLVYATPGQMIILINGLQYAGYKKFEWSVVGETACADSWGRALKTGEPSLSLPCFAERRYGGVPDEEMLMALSPAHLAKAIDGMKQLAKNGLRYPIAPYGIQADVRAGMGVSYGNK | not soluble |
| MSLSKAKTLYEKIYDAHVVVAAPGETPILYIDRHLVHEVTSPQAFDGLREKGRPVRQVSKTFATMDHNVSTTTKDINASGEMARIQMQTLSKNCEEFGVTLYDINHKYQGIVHVMGPELGITLPGMTIVCGDSHTATHGAFGSLAFGIGTSEVEHVLATQTLKQGRAKTMKIEVRGKVAPGITAKDIVLAIIGKTTAAGGTGYVVEFCGEAIRDLSMEGRMTVCNMAIELGAKAGLIAPDATTFNYIKGRKFAPQGSDWDAAVDYWQTLKTDEDAQFDAVVTLEASEIKPQVTWGTNPGQVIAVDEPIPSPSQFADPVERSSAEKALAYMGLEAGKMLSDYKVDKVFVGSCTNSRIEDMRAAAAVAKGKKVASHVQALIVPGSEQVKAQAEAEGLDKIFIEAGFEWRLPGCSMCLAMNNDRLGPGERCASTSNRNFEGRQGRDGRTHLVSPAMAAAAAIAGHFVDIRQEGHHHHHH | soluble |
| STGVPATDLQQSIMKNVQPIELYFDNELVTDCSALGVYDNSYLVPLHLFEFDFDTIVLGGRHYKKAECEKVEFELEVNGDMVSSDACLLRVPSGPKVRNIVHLFTNEIELKKMTQVTGIMNSPHQARTVFFGSFLTVRKSILTSDGTVMPNVLSYAAQTSRGYCGAAIVAGSPARIIGIHSAGTGSVAFCSLVSKDALERTLPQKQ | not soluble |
| MPQNYPWLNTEQPLSIKQLNGRVVILDFWTYCCINCLHVLPDLKYLEQKYKDSLTVIGVHSAKFDNEQETENIRQAILRYDIEHPVLVDKDFRVWQEYAVRAWPTLMVIDPKGYVIGYVSGEGNRDKLDQLITQVIQEHQGAINFQQLSLTLEKQRQPLITPLAFPGKVLATPSGLFVADSGHHRIVVSDFNGEILHLIGNGKSGLTDGNFQEAQFSAPQGMAFDMENQILYLADTENHALRRVDINQQTVETIAGTGEQSRNIQPHGGVGLETALNSPWDLVNIENSLYIAMAGVHQIWQMDLASGVIKTYAGTGVEACLDASLTESAFAQPSGITNNEQELYIADSEISSIRGVGLVEPQEVRTVCGSGGLFGFGDVDGQGEDVRLQHCLGVEYFQNYLWVADTYNHKIKSVSPHTGNCQTVLGDGLAGLQNGQGKNTRFFEPSGLSAIDSYLYISDTNNHVIRRVDLRTLEVTTMQFNGLCAPDVCIPNNFLEHHHHHH | soluble |
| AQIDLNITCRFAGVFHVEKNGRYSISRTEAADLCKAFNSTLPTMAQMEKALSIGFETCRYGFIEGHVVIPRIHPNSICAANNTGVYILTSNTSQYDTYCFNASAPPEEDCTSVTDLPNAFDGPITITIVNRDGTRYVQKGEYRTNPEDIYPSNPTDDDV | soluble |
| EKKQAEEALIRSENNFRTLAENSPDIISRFDRQNRHIYVNPAAEEPYGRPPEEIIGKTHSELGMDPEKVKLWESHHEKVFATGKPESMEFGYTSSQGKEYYFNTQVVPEFIDGKVTSILVISHNIT | not soluble |
